The text below walks through data of patent US20250205337A1, “COMPOSITIONS AND METHODS FOR ACTIVATING IMMUNE CELLS” (MDX Management LLC, priority 2022, published 2025).

“Also recorded” adds a separate entry of the source.

Common to all, as to assay type: cell-based, human
Assay [1] relates to κAPC. Kind of assay: Proinflammatory phenotype of κAPC (KX2 refinement). The conditions noted are these: in the presence of tumor cells. The source says:
Karnelian X1 cytokines, additional cytokines, TLR ligands and other factors for phenotypic optimization of cMo-derived APCs were further tested. These efforts led to the formation of Karnelian X2, which acted to further bolster κAPC for phagocytosis, immunogenic antigen presentation, and T cell priming, and also endowed κAPC with a proinflammatory phenotype and the ability to resist repolarization in the tumor microenvironment. KX2™ comprises cytokines (choices of IFNα, IFNγ and TNFα), TLR ligands (choices of Poly IC, CpG, R848), and TPI-1.

Assay [2] has as its system monocytes from healthy donors (Mo). The experiment in a line: Response of monocytes from healthy donors (Mo) to M-CSF and GM-CSF. An excerpt: Similarly, cMo poorly respond to GM-CSF alone or GM-CSF plus IL-4 that drives DC differentiation (data not shown). […] Parallel experiments testing the same M-CSF and GM-CSF reagents successfully differentiated Mo from healthy donors with >90% survival rates.
(§1) Examination of Akt and Erk1/2, as well as other signaling molecules, detected similar total levels in Mo versus cMo (FIG. 2C), ruling out the absence of protein phosphorylation due to reduction of protein translation.

Assay [3] relates to Akt, Erk1/2, STAT3, caspase-9 and caspase-3 in cMo. The experiment in a line: Survival and apoptosis signal transduction in cMo (Western blotting).
Excerpt: as §1
(§2) The mechanisms by which KX1 could promote cMo survival was further studied.
The role of IL-10 and other key factors in KX1 was further studied. As shown in FIG. 9A-9D, depletion of IL-10 diminished (>70%) KX1-mediated activation of Akt, Erk 1/2, and STAT3, and this global reduction of survival signal was associated with an increase in cell death signal through activation of caspase-9 and caspase-3.
As shown in FIG. 10A-10C, triple cytokine combination (C-combo V1) was capable of achieving >80% cMo differentiation, although each component alone was not sufficient.
(A western blot detects proteins with antibodies after separation by electrophoresis.)

Assay [4] relates to monocytes from cancer patients (cMo). The experiment in a line: cMo survival in vitro (STAT3 activators, inhibitors, M-CSF/GM-CSF, KX1).
Excerpt: After two days, the T cell culture medium was used to treat cMo.
IL-10/IL-10R signaling activates the downstream STAT3 signaling pathway.
as §2

Assay [5] has the same test system. The experiment in a line: Cytokine depletion assays of Karnelian X1 (cMo survival/adhesion and differentiation). The note with it: depletion assays. The protocol: The differentiation of cMo from >100 cancer patient samples was tested.
The role of IL-10 and other key factors in KX1 was further studied.

The subject of assay [6] is IL-10. The experiment in a line: IL-10 production by cMo. An excerpt:
Particularly, high levels of IL-10 and IL-6 were detected in Karnelian X1. Further cytokine depletion assays confirmed the critical role of IL-10, and its depletion largely (60-80%) diminished the capacity of cMo adhesion and survival (FIG. 5B).

As for `O=C1C=CC(=O)C(c2cc(Cl)ccc2Cl)=C1` [TPI-1], the “proinflammatory phenotype of κAPC” value in assay [1] is recorded as “promotes proinflammatory phenotype of κAPC”.

B1: M-CSF: classical macrophage differentiation factor (protein, UniProt P09603 33-554, looked up)
Macrophage colony-stimulating …: EEVSEYCSHMIGSGHLQSLQRLIDSQMETSCQITFEFVDQEQLKDPVCYLKKAFLLVQDIMEDTMRFRDNTPNAIAIVQLQELSLRLKSCFTKDYEEHDKACVRTFYETPLQLLEKVKNVFNETKNLLDKDWNIFSKNCNNSFAECSSQDVVTKPDCNCLYPKAIPSSDPASVSPHQPLAPSMAPVAGLTWEDSEGTEGSSLLPGEQPLHTVDPGSAKQRPPRSTCQSFEPPETPVVKDSTIGGSPQPRPSVGAFNPGMEDILDSAMGTNWVPEEASGEASEIPVPQGTELSPSRPGGGSMQTEPARPSNFLSASSPLPASAKGQQPADVTGTALPRVGPVRPTGQDWNHTPQKTDHPSALLRDPPEPGSPRISSLRPQGLSNPSTLSAQPQLSRSHSSGSVLPLGELEGRRSTRDRRSPAEPEGGPASEGAARPLPRFNSVPLTDTGHERQSEGSFSPQLQESVFHLLVPSVILVLLAVGGLLFYRWRRRSHQEPQRADSPLEQPEGSPLTQDDRQVELPV
Consider B1, for which the “survival signal transduction in Mo (activation of Akt and Erk1/2)” value in assay [2] is recorded as “induced strong survival signal transduction in Mo cells”. In assay [3], the “activation of Akt, Erk1/2, STAT3 in cMo” value was “failed to activate Akt and Erk1/2”; the “caspase-9 and caspase-3 cleavage in cMo” value was “increased caspase-9 and caspase-3 cleavage; also recorded: did induce apoptotic signals via cleavage of caspase-9 and caspase-3”. Besides, in assay [4] (over twenty cMo samples, various solid tumors), the “cMo responsiveness to differentiation factor” value is reported as “non- or poor responsiveness”. Further, the “role of the cytokine in Karnelian X1 for cMo survival and differentiation” value in assay [5] is on record as “dispensable”.

B2: IL-12: IL-12 family cytokine, STAT3 activator (protein, UniProt P29459 23-219; P29460 23-328, looked up)
Interleukin-12 subunit alpha: RNLPVATPDPGMFPCLHHSQNLLRAVSNMLQKARQTLEFYPCTSEEIDHEDITKDKTSTVEACLPLELTKNESCLNSRETSFITNGSCLASRKTSFMMALCLSSIYEDLKMYQVEFKTMNAKLLMDPKRQIFLDQNMLAVIDELMQALNFNSETVPQKSSLEEPDFYKTKIKLCILLHAFRIRAVTIDRVMSYLNAS
Interleukin-12 subunit beta: IWELKKDVYVVELDWYPDAPGEMVVLTCDTPEEDGITWTLDQSSEVLGSGKTLTIQVKEFGDAGQYTCHKGGEVLSHSLLLLHKKEDGIWSTDILKDQKEPKNKTFLRCEAKNYSGRFTCWWLTTISTDLTFSVKSSRGSSDPQGVTCGAATLSAERVRGDNKEYEYSVECQEDSACPAAEESLPIEVMVDAVHKLKYENYTSSFFIRDIIKPDPPKNLQLKPLKNSRQVEVSWEYPDTWSTPHSYFSLTFCVQVQGKSKREKKDRVFTDKTSATVICRKNASISVRAQDRYYSSSWSEWASVPCS
Regarding B2, the “induction of IL-10 in cMo” value in assay [6] was “induction of IL-10”. The “cMo survival (and differentiation) on supplementation” value in assay [4] (IL-10-depleted KX1 / in place of IL-10) is “could replace IL-10 to support cMo survival and differentiation”. The “Effectiveness (cMo survival rate)” value in assay [4] (in vitro, at optimal concentration) is reported as 50-70%. Also, the “Optimal concentration (ng/mL)” value in assay [4] (promoting cMo survival in vitro) is >10 ng/mL (10-100).
